From article PMC7227451 (Cellular and Molecular Immunology, 2020)

Target: T1, SARS-CoV-2 RBD-hFc (SARS-CoV-2, UniProt P0DTC2)
T1 construct: not shown: Fc (human IgG1), C-terminal, kept
Assay: ELISA
Details: both partners purified

B1: 80R (antibody, V domains shown)
VH: EVQLVQSGGGVVQPGKSLRLSCAASGFAFSSYAMHWVRQAPGKGLEWVAVISYDGSNKYYADSVKGRFTISRDNSKNTLYLQMNSLRAEDTAVYYCARDRSYYLDYWGQGTLVTVSS
VL: ETTLTQSPATLSLSPGERATLSCRASQSVRSNLAWYQQKPGQAPRPLIYDASTRATGIPDRFSGSGSGTDFTLTISRLEPEDFAVYYCQQRSNWPPTFGQGTKVEVK
- binding result: no binding
